These results are taken from paper PMC3750045, “Human RNase H1 Is Associated with Protein P32 and Is Involved in Mitochondrial Pre-rRNA Processing” (PLoS ONE, 2013).

B2: N-terminal His-tagged human RNase H1 (recombinant) (enzyme, UniProt O60930 1-286, looked up)
chain: MSWLLFLAHRVALAALPCRRGSRGFGMFYAVRRGRKTGVFLTWNECRAQVDRFPAARFKKFATEDEAWAFVRKSASPEVSEGHENQHGQESEAKASKRLREPLDGDGHESAEPYAKHMKPSVEPAPPVSRDTFSYMGDFVVVYTDGCCSSNGRRRPRAGIGVYWGPGHPLNVGIRLPGRQTNQRAEIHAACKAIEQAKTQNINKLVLYTDSMFTINGITNWVQGWKKNGWKTSAGKEVINKEDFVALERLTQGMDIQWMHVPGHSGFIGNEEADRLAREGAKQSED
notes: human RNase H1, 286 residues (domains printed as aa1-72, aa73-135, aa136-286), in the pET 3C vector; also called His-H1; His-tag RNase H1; source: E. coli BL21 (DE3), lysed in 6 M guanidine, purified (Ni-NTA agarose)
B3: GST-P32 fusion protein (natural protein, human, UniProt Q07021 74-282, looked up)
chain: LHTDGDKAFVDFLSDEIKEERKIQKHKTLPKMSGGWELELNGTEAKLVRKVAGEKITVTFNINNSIPPTFDGEEEPSQGQKVEEQEPELTSTPNFVVEVIKNDDGKKALVLDCHYPEDEVGQEDEAESDIFSIREVSFQSTGESEWKDTNYTLNTDSLDWALYDHLMDFLADRGVDNTFADELVELSTALEHQEYITFLEDLKSFVKSQ

One data set has as its target T1, His-RNase H1 (Homo sapiens, UniProt O60930 1-286).
T1 sequence: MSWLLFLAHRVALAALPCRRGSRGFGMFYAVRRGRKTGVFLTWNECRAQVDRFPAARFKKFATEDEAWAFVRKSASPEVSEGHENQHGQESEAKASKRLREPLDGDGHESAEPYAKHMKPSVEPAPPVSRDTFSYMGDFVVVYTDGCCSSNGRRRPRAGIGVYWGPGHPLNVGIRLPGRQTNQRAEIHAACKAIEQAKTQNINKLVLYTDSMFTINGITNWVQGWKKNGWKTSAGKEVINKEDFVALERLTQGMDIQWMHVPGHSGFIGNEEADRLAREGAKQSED
The data set can be described thus: EMSA; 2 mM Mg2+, 4 C; EMSA: 20 mM Tris pH 7.0, 20 mM NaCl, 2 mM MgCl2, 5% glycerol, 30 min at 4 C; cleavage buffer (described for IP activity assays; competition conditions by reference): 20 mM Tris pH 7.5, 50 mM NaCl, 2 mM MgCl2, 5 mM 2-mercaptoethanol, 37 C. The following applies: protein: recombinant; tags: N-terminal His; label: 32P (5' end).

For the data set “GST-P32 fusion protein”, the target named is B3. The data set can be described thus: pull-down; fixed amount of GST-P32 on GST beads, increasing amounts of RNase H1 (0.025–2.0 µg/400 µl), room temperature 15–20 minutes; glutathione elution; bound RNase H1 and P32 quantified by Western blot against known amounts. The following applies: both partners purified.
Data set [1] addresses B2. The data set can be described thus: cell-based or functional assay.

B1: Duplex B, non-cleavable Apo B 2'-fluoro RNA/DNA heteroduplex (XNA)
RNA: GGAUGGUAGCACAAGUGACA
DNA: TGTCCTTGTGCTACCATCC
modifications: strand 1 uniformly 2'-fluoro RNA; strand 2 DNA
On to B1, for which the binding result in the data set with His-RNase H1 is listed as “binds”. Consider B2, for which, in the data set with GST-P32 fusion protein, the “stoichiometry N” value was ~1.43 molecules of RNase H1 to 1 molecule of P32. As for B3, in data set [1], the “increase in Km of RNase H1 for the RNA/DNA duplex with GST-P32 at H1:P32 ratios of 1:1 and 1:5, against RNase H1 with GST control” value was about 5 fold; the “increase in kcat of RNase H1 cleavage of the RNA/DNA duplex with GST-P32, against control RNase H1” value was about 2 fold.
